Laboratory results reported in PMC5482835.

How the values were obtained:
[1] = target: GPI-YFP, a fusion protein containing the total sequence of YFP fused to a glycosylphosphatidylinositol (GPI)-membrane attachment signal; test: cross-linking; intact CHO-K1 cells, 2 mM membrane-impermeable BS3, 4 °C, 45 min, quenched with 50 mM glycine; SDS-PAGE and Western blot
[2] = target: full-length human Neu3 tagged at the C-terminus with a c-Myc epitope (human); test: non-reducing SDS-PAGE with Western blot; total homogenates of NEU3-transfected CHO-K1 cells separated by SDS-PAGE with or without 5% beta-mercaptoethanol; blotted with anti-Neu3 antibody
[3] = target: caveolin-1 (Chinese hamster (endogenous in CHO-K1)); test: cross-linking; intact CHO-K1 cells, 0.5 mM membrane-permeable DSP, room temperature, 45 min, quenched with 50 mM glycine; SDS-PAGE and Western blot; cross-link reversed by beta-mercaptoethanol

Work on “GPI-YFP, a fusion protein containing the total sequence of YFP fused to a glycosylphosphatidylinositol (GPI)-membrane attachment signal” yielded a stoichiometry N [1] of 2.

“full-length human Neu3 tagged at the C-terminus with a c-Myc epitope (enzyme)” showed a percent of the total enzyme in the ~125 kDa band [2] of 25% and a stoichiometry N [2] of 2.

Work on caveolin-1 (natural protein) yielded a stoichiometry N [3] of 2.
